Test results reported in patent publication US20260263595A1 (BETH ISRAEL DEACONESS MEDICAL CENTER, published 2026).

Biological target: T1, human CD40 on human B cells (CD20+ cells of human PBMCs) (human, UniProt P25942 21-277)
T1 construct: whole, on cells; also called native CD40 on human blood B cells; human CD20+ B cells
Experiment: flow cytometry on human PBMCs, CD20+ gate (FIG. 2A)
Description: The CD40 antibody 2C10 was characterized with respect to its ability to affect B cell activation both using rhesus monkey and human peripheral blood mononuclear cells (PBMCs). CD20 expression was chosen as being an indicator of B cells, and expression of CD23, CD80, and CD86 is associated with B cell activation. 2C10 was first assessed for its ability to bind to […]. Rhesus or human PBMCs were incubated with fluorochrome-conjugated 2C10 and an anti-CD20 antibody. Flow cytometric analysis was used to confirm the binding of 2C10 to human and rhesus CD20+ B cells (FIG. 2A). In another set of experiments, PBMCs from either rhesus monkey or humans were cultured either in the presence or absence of CD154⁺ Jurkat D1.1 cells, an immortalized T lymphocyte cell line. Activation of B cells was determined by measuring expression of three markers (CD23, CD80, and CD86) in CD20⁺ cells present in the PBMCs.

T1 sequence (P25942 21-277): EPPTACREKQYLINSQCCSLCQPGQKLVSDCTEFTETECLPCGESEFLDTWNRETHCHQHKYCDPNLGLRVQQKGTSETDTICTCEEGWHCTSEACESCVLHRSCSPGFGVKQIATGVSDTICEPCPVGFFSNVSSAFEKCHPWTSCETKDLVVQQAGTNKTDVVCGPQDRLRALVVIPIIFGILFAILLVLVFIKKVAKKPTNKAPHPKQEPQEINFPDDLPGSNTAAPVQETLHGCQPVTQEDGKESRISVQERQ

B1: anti-CD40 antibody 2C10 (antibody, mouse IgG1, V domains shown)
VH: QVQLQQSGAELAKPGASVKMSCKASGYTFTNYWMHWVKQRPGQGLEWIGYINPSNDYTKYNQKFKDKATLTADKSSNTAYMQLGSLTSEDSAVYYCARQGFPYWGQGTLVTVS
VL: QIVLTQSPAIMSASPGEKVTMTCSASSSVSYMHWYHQRSGTSPKRWIYDTSKLASGVPARFSGSGSGTSYSLTISSMEAEDAATYYCHQLSSDPFTFGSGTKLEIK
notes: also called 2C10 antibody; APC-conjugated 2C10
Q: Does B1 bind?
A: binds
